Assay results published in US20040038861A1, “Methods and compositions for normalizing lipid levels in mammalian tissues” (priority 2001, published 2004).

Key:
[1] = molecular target: metabolic amylin receptor
[2] = molecular target: metabolic amylin receptor; remark: listed apart in the source
soleus muscle [3] = experiment: cAMP content of isolated soleus muscle from normal fed rats; format: cell-based, rat; settings: normal fed; 10-fold molar excess of antagonist; CGRP alone 6.9±0.8
Procedure: (§1) Soleus muscle preparation. All experiments were performed according to protocols approved by the Institutional Animal Ethics Committee. 5-6 week-old male Wistar rats (160 g) were kept on a 12:12-h light/dark cycle, and fed and watered ad libitum. Animals were anaesthetised with 50 mg/kg Nembutal (pentobarbitone sodium), then sacrificed by cervical dislocation. Soleus muscles were dissected under oxygenated KHB (118 mM NaCl, 4.75 mM KCl, 1.2 mM MgSO4, 24.8 mM NaHCO3, 1.2 mM KH2PO4, 2.54 mM CaCl2, 10 mM glucose, pH 7.4) and teased into halves, then incubated as described below.
(§2) For the measurement of cAMP in muscle, isolated soleus strips were incubated with stated concentrations of peptides, then lyophilized and deproteinized. Each strip was placed in 400 μl of 0.5 M HClO4 with 5 mM EDTA (phosphodiesterase inhibitor) and sonicated three times in 20 s bursts. Tubes were heated for 3-5 min in boiling water to coagulate protein, then centrifuged (12,000 g, 4° C., 2 min). Supernatant (300 μl) was taken and the pH adjusted to 7.0 with 75 μl of 2 M NH4OH. The samples were refrigerated (4° C., 2 h) to precipitate proteins, then centrifuged under the same conditions as above and 50 μl taken for cAMP measurement.

soleus muscle [4] = experiment: cAMP content of isolated soleus muscle from high fat-fed rats; format: cell-based, rat
Procedure: as §1, §2

ramp 1/C1ins− receptor = molecular target: T1, ramp 1/C1ins− receptor (Mus musculus, UniProt Q60755+Q9WTJ5); experiment: cAMP production in L6 myoblasts co-transfected with ramp 1 and C1ins−; format: cell-based, murine; settings: 5 μM antagonist; agonist 10 pM to 100 nM
T1 construct: expressed in transfected cells; host or cells: L6 myoblasts (ATCC), transient co-transfection of pcDNA3.1 plasmids
T1 sequence (Q60755 42-496 isoform Q60755-2 limits assumed): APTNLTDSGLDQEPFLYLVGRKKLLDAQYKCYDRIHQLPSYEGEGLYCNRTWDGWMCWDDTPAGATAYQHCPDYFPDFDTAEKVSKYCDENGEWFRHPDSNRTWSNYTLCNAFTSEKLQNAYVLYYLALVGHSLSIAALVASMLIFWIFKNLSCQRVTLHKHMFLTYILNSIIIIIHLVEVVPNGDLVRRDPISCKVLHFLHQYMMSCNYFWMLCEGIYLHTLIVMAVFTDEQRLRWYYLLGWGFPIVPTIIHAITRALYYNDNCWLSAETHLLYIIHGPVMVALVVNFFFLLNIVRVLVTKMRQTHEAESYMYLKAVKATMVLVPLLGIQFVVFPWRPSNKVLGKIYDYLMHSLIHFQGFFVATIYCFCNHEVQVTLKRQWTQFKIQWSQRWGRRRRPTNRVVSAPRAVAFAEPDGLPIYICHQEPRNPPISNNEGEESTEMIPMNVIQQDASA
T1 sequence (Q9WTJ5 27-148 partner): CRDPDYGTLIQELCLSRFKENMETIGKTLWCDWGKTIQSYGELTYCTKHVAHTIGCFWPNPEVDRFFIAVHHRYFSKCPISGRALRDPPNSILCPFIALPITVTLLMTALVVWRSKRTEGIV
Procedure: Transfection of L6 myoblasts and cos-7 cells, and analysis of radioligand binding. L6 myoblasts and cos-7 cells were obtained from ATCC. Both cell lines were cultered in Dulbecco's modified Eagle's medium (DMEM; Gibco/BRL, high glucose) supplemented with 10% fetal calf serum (Gibco/BRL, Gaithersburg, Md.), L-glutamine (2 mM), penicillin (100 U/ml; Sigma), streptomycin ([…]; Sigma), saline (0.85%), under 5% CO2/95% air at 37° C. The day before transfection, cells were trypsinised and seeded into six-well plates at a density of 2.9×10^5 cells/well in the same medium. For transfection, cells were incubated with a mixture comprising 1 μg each of Qiagen-purified (Qiagen, Valencia, Calif.) plasmids containing C1ins− with either ramp 1 or ramp 3, and Fugene reagent (6 μl; Boehringer Mannheim) in Opti-Mem I medium (Gibco/BRL). The complex was added with serum to cells, which were incubated for a further 48 h.
Determination of cAMP in cultured cells and soleus muscle strips. cAMP concentration was measured in cells seeded in six-well plates and transfected as described. Following aspiration, cells were incubated for 15 min at room temperature in the presence of stated concentrations of ligands in binding buffer. Isobutylmethylxanthine (Sigma) was added to a final concentration of 0.5 mM together with stated concentrations of peptides, and the reaction terminated by aspiration. Cells were washed with 0.5 ml ice-cold TE buffer (10 mM Tris/HCl, 1 mM EDTA, pH 7.6) and rapidly transferred to eppendorf tubes in 1 ml of the same buffer, then boiled for 5 min. Following centrifugation at 12,000 g for 5 min at 4° C., then cooling on ice, duplicate 50 μl aliquots were analyzed for cAMP using an assay system based on competitive binding (Arnersham Pharmacia) according to the manufacturer's instructions.

soleus muscle [5] = experiment: Lipid metabolites (free fatty acid, glycerol, triglyceride; enzymatic analysis) in isolated soleus muscle from normally fed rats; format: cell-based, rat; settings: 1 h
soleus muscle [6] = experiment: Glucose transport (2-deoxy-D-glucose uptake) in incubated soleus muscle strips; format: cell-based, rat; settings: antagonist 1 μM and 10 μM; without antagonist 19.5±3.6
Procedure: as §1
Determination of rates of glucose transport in incubated soleus muscle strips. 4-5 muscle strips were added to each flask, which contained 10 ml DMEM. They were pre-incubated with hormones as indicated for 30 min at 30° C. in a shaking water bath, after which 5 μl of 2[^3H]DOG (0.5 μCi/ml) and 5 μl D[^14C(U)]sorbitol (0.05 μCi/ml) were added, then incubated for another 30 min; RIA grade BSA was added to 0.9% (w/v) to prevent non-specific binding of insulin to flasks. Following incubation, muscle strips were transferred to ice-cold KHB for 5-10 min to remove excess [^3H]DOG and [^14C]sorbitol. They were then blotted, frozen, tendons excised, then lyophilized for a further 48 h. Muscles were then weighed, transferred to scintillation vials and digested with 0.5 ml 1 M NaOH at 60° C. for 1 h. Scintillation fluid (4 ml) was added to each vial, and samples counted in a Beckman liquid scintillation spectrometer, preset to count ^14C and ^3H channels simultaneously. The amount of each isotope present in the samples was determined and used to calculate the extracellular space and the intracellular concentration of [^3H]DOG. The accumulation of intracellular [^3H]DOG, a measure of muscle glucose uptake, was calculated by subtracting the concentration of [^3H]DOG in the extracellular space from the corresponding total muscle [^3H]DOG]; extracellular [^3H]DOG was quantified by measuring the muscle concentration of [^14C]sorbitol.
(§3) Data analysis. One way ANOVA, Dunnett's Multiple Comparisons Test, and unpaired Student's t-tests were used to calculate the statistical significance of differences, as appropriate. Dose-response curves were fitted to a sigmoidal dose-response algorithm, as follows: Y=minimum+(maximum−minimum)/([…] log ^(EC50^−X), for 2-DOG-uptake; and by a four parameter logistic model, Y=minimum+(maximum−minimum)/(1+10 log ^(EC50^−X)Hill-Coefficient) for total glycogen and [^14C]glucose incorporation. Calculations were performed using Prism v2.0 (GraphPad Software, San Diego, Calif.) to derive values for half-maximal effective concentration (EC50). Displacement curves derived for competition of bound radioligand with cold ligand in transfected cells were calculated according to a one site competition fit using Prism v2.0.

[7] = molecular target: high affinity CGRP receptor
[8] = molecular target: metabolic amylin receptor; remark: listed apart in the source
[9] = molecular target: high affinity CGRP receptor; remark: listed apart in the source
[10] = molecular target: high affinity CGRP receptor; remark: listed apart in the source
soleus muscle [11] = experiment: Total glycogen content in isolated incubated soleus muscle; format: cell-based, rat; settings: isolated rat soleus muscle
Procedure: as §1
Total glycogen content was measured in muscle strips by lyophilization followed by hydrolysis of glycogen to D-glucose with amyloglucosidase (Sigma) 20 U/100 ml in 0.2 M sodium acetate/acetic acid buffer, pH 4.8, and expressed as μmol ‘glucosyl’ units/g dry muscle weight. Free glucose in supernatant solutions was measured with a glucose/lactate analyzer (YSI 2300STAT, Yellow Springs Corporation) using D-glucose oxidase immobilized enzyme chemistry.
as §3

[12] = molecular target: T2, murine ramp 1/C1ins− receptor (Mus musculus, UniProt Q60755+Q9WTJ5); experiment: Radioligand binding and displacement of [3H]amylin in L6 myoblasts co-transfected with murine ramp 1 and C1ins−; settings: 10 nM radioligand, FIG. 8D
T2 construct: expressed in transfected cells; host or cells: L6 myoblasts (ATCC), transient co-transfection of pcDNA3.1 plasmids
T2 sequence (Q60755 42-496 isoform Q60755-2 limits assumed): T1 sequence (Q60755 42-496 isoform Q60755-2 limits assumed)
T2 sequence (Q9WTJ5 27-148 partner): T1 sequence (Q9WTJ5 27-148 partner)
Procedure: Transfection of L6 myoblasts and cos-7 cells, and analysis of radioligand binding. L6 myoblasts and cos-7 cells were obtained from ATCC. Both cell lines were cultered in Dulbecco's modified Eagle's medium (DMEM; Gibco/BRL, high glucose) supplemented with 10% fetal calf serum (Gibco/BRL, Gaithersburg, Md.), L-glutamine (2 mM), penicillin (100 U/ml; Sigma), streptomycin (100 mg/ml; Sigma), saline (0.85%), under 5% CO2/95% air at 37° C. The day before transfection, cells were trypsinised and seeded into six-well plates at a density of 2.9×10^5 cells/well in the same medium. For transfection, cells were incubated with a mixture comprising 1 μg each of Qiagen-purified (Qiagen, Valencia, Calif.) plasmids containing C1ins− with either ramp 1 or ramp 3, and Fugene reagent (6 μl; Boehringer Mannheim) in Opti-Mem I medium (Gibco/BRL). The complex was added with serum to cells, which were incubated for a further 48 h.
For binding experiments, radioligand (either alone or together with stated final concentrations of non-radiolabeled ligands) was dissolved in DMEM containing 0.1% BSA (binding buffer) for 1 h before binding experiments were performed. […] Cells were washed twice with this buffer, then incubated with 1 ml of the same plus radioligand for 4 h at room temperature (21° C.).

soleus muscle [13] = experiment: Incorporation of D[14C(U)]glucose into glycogen in isolated incubated soleus muscle; format: cell-based, rat; settings: isolated rat soleus muscle
Procedure: as §1
Measurement of glycogen metabolism in isolated, incubated soleus muscle. […]. Glycogen was precipitated overnight at −20° C. with 96% ethanol (1.2 ml), followed by centrifugation at 8,000 g (15 min, 4° C.). Pellets were washed twice with the same amount of ethanol then dissolved in water (0.6 ml). Aliquots (0.3 ml) were analyzed for D[^14C(U)] glucose content by liquid scintillation spectrometry.
as §3

[14] = molecular target: T3, murine ramp 1/C1ins- receptor (murine, UniProt Q60755); experiment: displacement of 20 nM [^3H]amylin, co-transfected L6 myoblasts; Cheng and Prusoff with Kd […]
T3 sequence 1: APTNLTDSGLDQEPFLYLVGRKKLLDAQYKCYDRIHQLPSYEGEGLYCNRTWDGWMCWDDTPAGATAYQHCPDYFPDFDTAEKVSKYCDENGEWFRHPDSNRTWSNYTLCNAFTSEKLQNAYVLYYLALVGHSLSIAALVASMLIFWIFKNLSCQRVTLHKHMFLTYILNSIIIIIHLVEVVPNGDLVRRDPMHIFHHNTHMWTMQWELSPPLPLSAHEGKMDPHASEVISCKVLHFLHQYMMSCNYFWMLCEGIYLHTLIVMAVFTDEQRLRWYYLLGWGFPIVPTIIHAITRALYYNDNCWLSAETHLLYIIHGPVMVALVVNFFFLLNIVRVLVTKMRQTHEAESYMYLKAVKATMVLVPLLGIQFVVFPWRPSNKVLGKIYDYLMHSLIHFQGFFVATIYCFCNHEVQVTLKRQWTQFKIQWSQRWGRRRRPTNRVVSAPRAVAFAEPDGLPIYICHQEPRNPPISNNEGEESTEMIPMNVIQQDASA
T3 sequence 2: T1 sequence (Q9WTJ5 27-148 partner)
From the text: (§4) Cells were then washed and bound radioactivity determined by liquid scintillation counting. […] Each point represents the mean±SEM of three independent myoblast transfections from an experiment repeated at least twice.
95% confidence intervals (nM) are bracketed.

[15] = molecular target: T3, murine ramp 1/C1ins- receptor; experiment: displacement of 20 nM [^3H]amylin, co-transfected L6 myoblasts
From the text: as §4

[16] = molecular target: T3, murine ramp 1/C1ins- receptor; experiment: displacement of 20 nM [^3H]amylin, L6 myoblasts co-transfected with murine ramp 1 and C1ins-
From the text: as §4

## rat amylin (from UniProt P12969) (ligand)
[1]
  free fatty acid content in incubated rat soleus muscle, EC50: 7.8 nM
[2]
  EC50, total glycogen content, without insulin: 8 nM

## rat amylin-(8-37)
Soleus muscle [3]
  cAMP content with 100 nM CGRP plus antagonist: 2.9 ± 0.8 pmol/mg
Soleus muscle [4]; 10-fold molar excess of antagonist
  cAMP content with 100 nM CGRP1 plus antagonist: 4.3 ± 0.8 pmol/mg
Soleus muscle [4]; 10-molar excess of antagonist, CGRP alone 8.6±0.4
  cAMP content with 1 pM CGRP plus antagonist: 4.4±0.4 pmol/mg
Ramp 1/C1ins− receptor
  antagonism of peptide-evoked cAMP production: only a modest decrease in cAMP production
Soleus muscle [5]; 100 pM antagonist + 1 pM CGRP, CGRP alone 166±18
  free fatty acid concentration in conjunction with 1 pM CGRP: 86±20 nmol/g
Soleus muscle [5]; 10 μM antagonist or maximally stimulating insulin (23.7 nM) + 100 nM CGRP, CGRP alone 334±52
  free fatty acid content in conjunction with 100 nM CGRP: 34 ± 5 nmol/g
Soleus muscle [5]; 10 μM antagonist or maximally stimulating insulin (23.7 nM) + 100 nM amylin, amylin alone 216±26
  free fatty acid content in conjunction with 100 nM amylin: 18.5 ± 6 nmol/g
Soleus muscle [6]
  glucose uptake in presence of amylin (10 nM) and insulin (23.7 nM) plus antagonist: no significant effect

## rat CGRP-1 (ligand)
[7]
  NEFA content of soleus muscle from high fat-fed rats, EC50: 0.7 pM
  decrease in intramuscular triglyceride of soleus muscle from high fat-fed rats, EC50: 0.25 pM
[8]
  free fatty acid content in incubated rat soleus muscle, EC50 of the second phase: 45 nM
[9]
  free fatty acid content in incubated rat soleus muscle, EC50 of the first phase: 0.25 pM
[10]
  lipolysis in skeletal muscle, EC50 as summed up in the description: 0.26 pM
[2]
  EC50, ^14C-glucose incorporation into glycogen, with insulin (23.7 nM): 0.7 nM
  EC50, ^14C-glucose incorporation into glycogen, without insulin: 3.1 nM
  EC50, total glycogen content, without insulin: 3.2 nM

## salmon calcitonin
Soleus muscle [11]; absence of insulin
  EC50: 1.7 nM
Soleus muscle [11]; human insulin 23.7 nM
  EC50: 0.6 nM
[12]
  specific binding of [3H]radioligand to L6 myoblasts co-transfected with ramp 1 and C1ins−: significant increases in specific binding
Soleus muscle [13]; absence of insulin
  EC50: 0.1 nM
Soleus muscle [13]; human insulin 23.7 nM
  EC50: 0.9 nM

## VTHRLAGLLSRSGGVVKDNFVPTNVGSEAF [^8,37rat CGRP-1]
[14]
  Ki: 19.5 nM
[15]
  fold lower Kl than ^8,37amylin: ~20 fold
[16]
  IC50: 62 nM
